This note sets out measurements from patent publication US20030194727.

The test system of series [1] is K5 ZFP (VSSR-DGNV-VSSR-VDYK-Gal4AD) (Artificial Sequence). Briefly: EMSA. Particulars: reference for the mutant comparison; binding of parent K5 implied by gel shift; exact probe not given, degenerate expected site. In general terms: A gel shift assay detects complexes by their altered migration in electrophoresis.
Series [2] deals with K5 mutant ZFP (VSSR-DGAV-VSSR-VDYK-Gal4AD) N80A (Asn DNA-contacting residue of finger 2, DGNV to DGAV; position counted in SEQ 225) (Artificial Sequence). Kind of series: EMSA. To be noted: at least 10-fold decrease in DNA-binding affinity for expected site; no ketoconazole resistance in yeast.
Sequence of K5 mutant ZFP (VSSR-DGAV-VSSR-VDYK-Gal4AD) N80A (Asn DNA-contacting residue of finger 2, DGNV to DGAV; position counted in SEQ 225) (Artificial Sequence) (chain, as listed by the source N80A): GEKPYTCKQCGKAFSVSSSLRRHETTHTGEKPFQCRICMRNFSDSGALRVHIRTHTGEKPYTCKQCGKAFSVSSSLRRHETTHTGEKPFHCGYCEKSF

Sequence of K5 ZFP (VSSR-DGNV-VSSR-VDYK-Gal4AD) (Artificial Sequence) (chain, as listed by the source): as the sequence (chain, as listed by the source N80A) above, with A47N counted along it

For the sequence “KATGTDAACGTD (double strand) [K5 expected target site]”, the binding signal was 1 in series [1] and < 0.1 fold of K5 in series [2].
